Results from the supplement of paper PMC10567573.

B1: C9orf9 (parent)
chain: TKHKCRQLTKASLKPRGCSKPPWR
B2: TMEM192 (parent)
chain: ILGKVILWILHLLLECYIQYHHSK

Variants of: B1
Assay: protein stability index of a GFP-peptide fusion (GPS, HEK-293T) (PSI 1-6); higher = more stable
Conditions: c terminus: a fixed tail appended
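Note: lentivirally expressed fusions sorted by FACS into six bins by GFP to DsRed ratio, PSI derived from sequencing read proportions per bin multiplied by bin number.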

Protein stability index, by site and new letter:
P21: K 2.76 | M 2.64 | L 3.59 | Y 2.13 | D 2.93 | V 3.09 | H 3.41 | I 3.18 | S 2.4 | C 2.36 | T 2.56 | G 2.81 | W 2.28 | F 2.79 | N 2.9 | E 2.79 | Q 3.48
C18: V 2.1 | W 2.06 | P 3.32 | T 3.11 | R 3.03 | M 2.58 | Q 3.32 | N 3.22 | S 1.35 | Y 2.18
W23: N 4.32 | P 4.18 | I 3.56 | E 4.29 | C 2.89 | M 3.05 | V 3.28 | S 2.84 | L 3.72 | G 2.73 | H 4.46 | A 3.89 | K 4.63 | Y 3.86 | F 2.67 | D 4.3 | T 3.93 | Q 3.46 | R 3.96
P22: D 2.38 | H 2.98 | T 3.03 | C 1.83 | G 3.09 | Q 2.99 | A 2.97 | S 3.14 | F 1.73 | R 2.51 | Y 2.62 | I 2.02 | M 2.76 | W 1.89 | E 2.98 | N 2.32 | K 3.03
K20: Q 2.45 | E 2.41 | H 2.76 | Y 3.56 | T 2.21 | G 2.64 | R 3.14 | L 2.3 | I 2.37 | F 2.32 | C 2.23 | V 2.2 | D 1.92 | N 2.95 | P 3.42 | M 1.76 | S 2.9 | A 2.41 | W 1.94
R24: M 2.57 | L 1.72 | W 2.51 | E 3.22 | V 2.14 | N 2.79 | A 2.95 | D 3.17 | Q 2.2 | S 2.18 | C 1.99 | I 1.43 | K 3.63 | T 2.73 | G 2.12 | F 2.14 | Y 2.59 | H 2.82 | P 2.53
S19: Y 1.99 | M 2.94 | F 2.33 | L 3.11 | I 2.08 | W 2.14 | N 2.44 | P 1.92 | R 3.63 | D 2.77 | C 2.36 | Q 2.44 | G 2.21 | E 2.02 | K 2.37 | A 1.5 | V 3.35 | T 3.02

Variants of: B2
Assay: as above
Conditions: c terminus: a fixed tail appended

Protein stability index, by site and new letter:
L2: E 2.32 | T 3.29 | N 2.93 | P 2.74 | Y 2.77 | S 2.82 | Q 2.41 | W 2.18 | K 3.23 | D 2.04 | F 2.86 | H 1.91 | G 3.77 | V 3.54 | A 2.41 | R 2.75
G3: I 2.58 | R 3.69 | S 1.95 | H 2.67 | P 3.89 | N 2.87 | D 3.06 | M 2.76 | L 2.76 | T 3.14 | F 2.9 | K 3.66 | Q 3.27 | E 2.62 | C 3.41
I1: E 3.42 | G 3.43 | H 2.88 | F 2.81 | W 2.22 | S 3.41 | V 3.68 | M 3.36 | L 3.4 | P 2.56 | N 3.45 | C 2.82 | Q 2.5 | D 2.93 | K 1.79 | R 2.92 | T 3.49
